Tests used:
Human Siglec-7 (human) = Human Siglec-7 (human) (UniProt Q9Y286); experiment: flow cytometry on fresh purified human NK cells gated CD3-/CD56+, isotype control staining
Human Siglec-9 [1] = target: T1, Human Siglec-9 (human, UniProt Q9Y336 18-463); experiment: as above
T1 construct: Expressed on transfected CHO cells and YTS cells; also called huSiglec-9; CD329

Human Siglec-9 [2] = target: T1, Human Siglec-9; experiment: flow cytometry titration on neuraminidase-treated (desialylated) moDCs; goat F(ab')2 anti-human IgG (Fc) PE
Experimental: (§1) moDC were desialylated for 2 hours with 25 mU neuraminidase (Roche Diagnostics).
(§2) Binding on moDCs and neuraminidase treated moDCs was tested in a titration experiment by flow cytometry. Cells were incubated 1 h in Staining Buffer (SB) with primary antibodies at 10 ug/ml and a series of dilution of 1:10. They were washed two times with SB, then incubated 30 min with a Goat F(ab′)² Anti-Human IgG (Fc) PE (Jackson lmmunoresearch), and washed twice with SB.

Human Siglec-9 [3] = target: T1, Human Siglec-9; experiment: flow cytometry titration on moDC against neuraminidase-treated moDC
Experimental: as §1, §2

T1 sequence (Q9Y336 18-463): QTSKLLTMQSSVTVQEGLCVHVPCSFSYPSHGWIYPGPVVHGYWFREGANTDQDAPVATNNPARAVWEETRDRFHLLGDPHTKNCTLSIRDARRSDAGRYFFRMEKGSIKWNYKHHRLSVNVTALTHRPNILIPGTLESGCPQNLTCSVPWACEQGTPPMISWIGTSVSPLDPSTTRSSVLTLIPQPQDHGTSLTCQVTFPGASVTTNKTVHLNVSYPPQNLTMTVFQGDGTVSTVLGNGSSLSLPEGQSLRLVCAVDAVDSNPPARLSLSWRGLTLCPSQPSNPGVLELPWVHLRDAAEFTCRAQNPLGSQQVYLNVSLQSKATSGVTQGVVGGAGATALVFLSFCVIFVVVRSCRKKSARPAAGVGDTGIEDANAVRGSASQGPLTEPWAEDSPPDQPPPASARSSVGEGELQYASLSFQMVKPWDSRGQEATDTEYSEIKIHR
Human Siglec-7 (human), sequence (Q9Y286 19-467): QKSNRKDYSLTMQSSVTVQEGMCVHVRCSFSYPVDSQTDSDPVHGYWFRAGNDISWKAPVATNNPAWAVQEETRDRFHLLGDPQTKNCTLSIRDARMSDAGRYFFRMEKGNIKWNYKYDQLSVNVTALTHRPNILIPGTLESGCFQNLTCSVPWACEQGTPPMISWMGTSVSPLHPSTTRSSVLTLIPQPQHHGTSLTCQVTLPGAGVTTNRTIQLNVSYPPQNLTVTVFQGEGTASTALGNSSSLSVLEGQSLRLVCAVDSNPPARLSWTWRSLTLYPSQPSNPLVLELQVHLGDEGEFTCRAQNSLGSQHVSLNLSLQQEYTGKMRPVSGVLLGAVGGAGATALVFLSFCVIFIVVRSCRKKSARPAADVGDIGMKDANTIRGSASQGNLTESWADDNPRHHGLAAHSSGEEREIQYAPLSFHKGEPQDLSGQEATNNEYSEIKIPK

## Isotype control - APC (antibody)
Human Siglec-7 (human)
  percent of NK cells in quadrant Q1 (isotype APC positive, isotype PE negative): 0.975
  percent of NK cells in quadrant Q2 (isotype APC positive, isotype PE positive): 0.34

## Isotype control - PE (antibody)
Human Siglec-9 [1]
  percent of NK cells in quadrant Q2 (isotype APC positive, isotype PE positive): 0.34
  percent of NK cells in quadrant Q3 (isotype APC negative, isotype PE positive): 2.54

B1: mAbD (antibody, V domains shown)
VH: QIQLVQSGPELKKPGETVKISCKASGYTFTDYSMHWVKQAPGKGLKWMGWIITETGEPTYADDFRGRFAFSLETSANTAYLQINNLKNEDTATYFCARDFDGYWGQGTTLTVSS
VL: DILMTQSPASLSASVGETVTITCRASENIYSYLAWYQQKRGKSPQFLVYNAKTLTEGVPSRFRGSGSGTQFSLKINSLQPEDFGTYYCQHHYGFPWTFGGGTKLEIK
notes: Anti-Siglec-9
Human Siglec-9 [2]
  EC50 (read off the curve): ~0.09 µg/mL
Human Siglec-9 [3]
  fold enhancement of EC50 after neuraminidase treatment of moDC: 10 fold

B2: mAbA (antibody, V domains shown)
VH: QVQLQQPGAELVKPGSPVKLSCKASYFTFTSYWMHWVRQRPGQGLEWIGEINPSNGHTNYNEKFESKATLTVDRSSSTAYMQLSSLTSEDSAVFYCANGVESYDFDDALDYWGQGTSVTVSS
VL: DIQMTQTTSSLSASLGDRVTISCRASQDINNYLNWYQQKPDGTIKLLIYYTSRLHSGVPSRFSGSGSGTDYSLTINNLEQEDIATYFCQQGNTLPFTFGGGTKLEIK
notes: Anti-Siglec-9
Human Siglec-9 [2]
  EC50 (read off the curve): ~0.03 µg/mL
Human Siglec-9 [3]
  fold enhancement of EC50 after neuraminidase treatment of moDC: 10 fold

B3: mAbC (antibody, V domains shown)
VH: QIQLVQSGPELKKPGETVKISCKASGYTFTNYEMNWVKEAPGKGLKWMGWINTYTGESTYADDFKGRFAFSLETSASTVYLQINNLKDEDVATYFCVRDDYGRSYGFAYWGQGTLVTVSA
VL: NIVLTQSPASLTVSLGQRANISCRASESVDSYGNSFMHWYQQKPGQPPKLLIYLASKLESGVPARFSGSGSRTDFTLTIDPVETDDAATYYCHQNNEDPPWTFGGGTKLEIK
notes: Anti-Siglec-9
Human Siglec-9 [2]
  EC50 (read off the curve): ~0.03 µg/mL
Human Siglec-9 [3]
  fold enhancement of EC50 after neuraminidase treatment of moDC: 10 fold

Source: US20210363249A1 (INNATE PHARMA, published 2021)
